From patent publication US20190309079A1 (Regeneron, published 2019)
Positions count from the first letter of the chain named. Blank lines part the entries; values can stand above or below the binder they belong to.

Tests used:
[1] = molecular target: T1, full length human LEPR (amino acids 1-1165 of P48357, Isoform B) on cells (human, UniProt P48357 22-1165); assay: FACS, 70 nM Ab, HEK293/Stat3-luc/hLEPR-FL, no Leptin
T1 construct: also called HEK293/Stat3-luc/hLEPR-FL; HEK293/Stat3-hLEPR-FL
T1 sequence: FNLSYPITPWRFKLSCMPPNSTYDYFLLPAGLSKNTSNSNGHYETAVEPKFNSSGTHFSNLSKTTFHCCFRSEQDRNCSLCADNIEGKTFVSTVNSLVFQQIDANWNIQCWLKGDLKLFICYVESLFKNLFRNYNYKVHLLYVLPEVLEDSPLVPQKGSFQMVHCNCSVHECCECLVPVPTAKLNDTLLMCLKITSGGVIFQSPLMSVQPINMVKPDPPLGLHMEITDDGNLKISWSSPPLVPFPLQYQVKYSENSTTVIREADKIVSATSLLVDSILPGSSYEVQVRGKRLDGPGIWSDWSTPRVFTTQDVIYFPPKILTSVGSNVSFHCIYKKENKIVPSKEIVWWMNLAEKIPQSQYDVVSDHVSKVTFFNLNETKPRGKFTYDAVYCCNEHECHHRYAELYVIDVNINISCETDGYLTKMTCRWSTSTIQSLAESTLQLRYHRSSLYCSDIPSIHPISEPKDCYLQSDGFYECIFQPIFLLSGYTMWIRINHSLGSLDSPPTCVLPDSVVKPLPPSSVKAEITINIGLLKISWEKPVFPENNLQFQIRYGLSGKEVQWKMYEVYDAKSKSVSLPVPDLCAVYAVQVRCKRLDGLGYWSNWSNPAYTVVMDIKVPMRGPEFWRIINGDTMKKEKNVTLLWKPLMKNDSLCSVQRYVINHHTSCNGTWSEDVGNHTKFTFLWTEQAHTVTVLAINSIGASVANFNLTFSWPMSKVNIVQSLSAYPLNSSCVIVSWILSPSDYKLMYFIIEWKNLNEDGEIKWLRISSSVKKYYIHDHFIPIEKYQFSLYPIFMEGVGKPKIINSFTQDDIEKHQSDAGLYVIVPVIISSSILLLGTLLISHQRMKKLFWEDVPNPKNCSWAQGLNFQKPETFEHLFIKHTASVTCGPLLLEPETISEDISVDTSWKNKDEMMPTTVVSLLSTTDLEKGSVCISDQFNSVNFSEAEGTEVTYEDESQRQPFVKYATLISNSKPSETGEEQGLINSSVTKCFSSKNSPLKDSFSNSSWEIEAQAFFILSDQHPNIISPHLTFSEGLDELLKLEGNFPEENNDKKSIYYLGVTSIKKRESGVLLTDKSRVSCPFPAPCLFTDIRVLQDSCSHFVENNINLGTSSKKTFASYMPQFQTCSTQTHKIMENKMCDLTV

[2] = molecular target: T2, LEPR-A409E (signaling-defective mutant) on HEK293 reporter cells (human, UniProt P48357 22-1165); assay: cell-based or functional assay
T2 sequence: T1 sequence with A388E

[3] = molecular target: T3, wild-type LEPR on HEK293 reporter cells (UniProt P48357 22-1165, limits assumed); assay: cell-based or functional assay
T3 sequence (looked up): T1 sequence

B2: H4H16650P2 (antibody, V domains shown)
VH: QVQLVESGGGVVQPGKSLRLSCVASGFTFSSDAMYWVRQAPGKGLEWVAVIYYDGNYQYYEDSVKGRFTISRDNSQNTLDLQMNSLRVDDTAVYFCARLNWDYWYLDLWGRGTLVTVSS
VL: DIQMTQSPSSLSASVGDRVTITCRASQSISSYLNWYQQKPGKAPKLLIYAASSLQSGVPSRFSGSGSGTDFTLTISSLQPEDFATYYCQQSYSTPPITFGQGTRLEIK
Binding Ratio (normalized to unstained) [1]: 42 fold | EC50 (read off the curve), pSTAT3 Y705/STAT3 densitometry [2]: ~2e-10 M | EC50 (read off the curve), pSTAT3 Y705/STAT3 densitometry [3]: ~5e-10 M

B3: H4H16679P2 (antibody, V domains shown)
VH: QVQLVESGGGVVQPGRSLRLSCTASGFTFSSYAMYWVRQAPGKGLEWVSVIYYDGSYKYYADSVKGRFTISRDNSKNTLYLQMDSLRAEDTAVYYCASYNWNYWYFDFWGRGTLVTVSS
VL: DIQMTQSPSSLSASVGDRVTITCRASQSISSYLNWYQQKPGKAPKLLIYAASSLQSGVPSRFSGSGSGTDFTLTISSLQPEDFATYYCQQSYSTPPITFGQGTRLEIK
Binding Ratio (normalized to unstained) [1]: 51 fold

Results, then the binder that gave them:

Binding Ratio (normalized to unstained) [1]: 47 fold
B1: H4H17319P2 (antibody, V domains shown)
VH: QVQLVESGGSVVQPGRSLRLSCAASGFTFSTYAMYWVRQTPGKGLEWVAVLYSDGSNKYYIDSVKGRFTISRDTSTNTLYLQMSSLRADDSALYYCARLNWDYWYFDLWGRGTLVTVSS
VL: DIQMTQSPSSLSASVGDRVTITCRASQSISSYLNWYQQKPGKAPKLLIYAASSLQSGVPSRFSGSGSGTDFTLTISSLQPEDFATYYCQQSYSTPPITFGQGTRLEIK
notes: also called REGN4461

Binding Ratio (normalized to unstained) [1]: 46 fold
B4: H4H17321P2 (antibody, V domains shown)
VH: QVQLVESGGGVVQPGRSLRLSCEASGFSSSDNAMYWVRQAPGKGLEWVSVIYHDGSYKYYEDSVKGRFTIARDNSKNTLYLQMNSLRAEDTAVYYCARYNWNHWYFDVWGRGTLVTVSS
VL: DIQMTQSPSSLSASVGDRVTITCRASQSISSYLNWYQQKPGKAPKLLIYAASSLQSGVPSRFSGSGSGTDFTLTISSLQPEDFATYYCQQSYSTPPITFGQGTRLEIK
